To fix the notation:
B1: CARD9^2−97 (CARD9 CARD alone), wild type [human] / itself (parent)
chain: SDYENDDECWSVLEGFRVTLTSVIDPSRITPYLRQCKVLNPDDEEQVLSDPNLVIRKRKVGVLLDILQRTGHKGYVAFLESLELYYPQLYKKVTGK

This assay covers variants of B1. The experiment in a line: polymerization assay (absorbance at 350 nm). To be noted: with itself; 1 mM D43R/K58D + EDTA (parent trace is 150 uM WT + EDTA); 50 mM Tris, 150 mM NaCl, 0.5 mM TCEP, pH 7.0; 25 °C; read off a plot.
Regarding chain 1 D42R K57D, the response amounted to 1.7 A350.
